Experiment [1] concerns the target F-actin of rabbit psoas ghost muscle fibers (rabbit (endogenous in psoas muscle fibers)) (UniProt P68135). Description: reconstitution of ghost muscle fibers, washing, SDS-PAGE densitometry; single rabbit psoas ghost fibers (F-actin held in the fiber) incubated with troponin, tropomyosin and S1 at 1.0–2.5 mg/mL in 50 mM KCl, 3 mM MgCl2, 1 mM DTT, 6.7 mM K,Na–phosphate pH 7.0; unbound protein washed off; 5–10 fibers on SDS-PAGE, bands quantified with calibration curves; average molar ratios to actin.

Experiment [2] concerns the target AEDANS–S1 (myosin subfragment-1 labeled with 1,5-IAEDANS at Cys707). Description: polarized fluorescence of AEDANS-S1 in ghost fibers. The following applies: read off a plot.
The mark [3] stands for this setting: scale: mol actin per mol tropomyosin.
[4] abbreviates: S1 (no nucleotide), Actin + Tpm + Tn, + Ca2+, parent: est. 0.16.
The mark [5] stands for this setting: S1 (no nucleotide), Actin + Tpm + Tn, - Ca2+, parent: est. 0.14.
Where [6] appears, read: S1 + ADP, Actin + Tpm + Tn, + Ca2+, parent: est. 0.16.
The mark [7] stands for this setting: S1 + ADP, Actin + Tpm + Tn, - Ca2+, parent: est. 0.18.
Setting [8] is: S1 + ATP, Actin + Tpm + Tn, + Ca2+, parent: est. 0.46.
Where [9] appears, read: S1 + ATP, Actin + Tpm + Tn, - Ca2+, parent: est. 0.36.
Where [10] appears, read: S1 (no nucleotide), Actin + Tpm + Tn, - Ca2+, parent: est. 0.26.
Setting [11] is: S1 + ADP, Actin + Tpm + Tn, + Ca2+, parent: est. 0.17.
Where [12] appears, read: S1 + ADP, Actin + Tpm + Tn, - Ca2+, parent: est. 0.27.
Setting [13] is: S1 + ATP, Actin + Tpm + Tn, - Ca2+, parent: est. 0.46.
Where [14] appears, read: S1 + Tpm, no troponin, no nucleotide, parent: est. 0.16.

Chain of wild-type β-tropomyosin (human TPM2) with N-terminal Met–Ala–Ser extension (natural protein) (P07951 whole entry): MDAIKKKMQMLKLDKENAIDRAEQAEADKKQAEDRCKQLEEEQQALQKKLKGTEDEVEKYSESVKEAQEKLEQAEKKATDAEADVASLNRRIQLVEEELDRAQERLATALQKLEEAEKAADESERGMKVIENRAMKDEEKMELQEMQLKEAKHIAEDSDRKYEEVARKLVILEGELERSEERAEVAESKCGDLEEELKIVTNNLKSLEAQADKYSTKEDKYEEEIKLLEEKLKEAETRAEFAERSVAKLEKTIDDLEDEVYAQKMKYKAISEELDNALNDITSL
Chain of wild-type γ-tropomyosin (Tpm3.12, human TPM3) with N-terminal Met–Ala–Ser extension (natural protein) (Q5KR47 whole entry): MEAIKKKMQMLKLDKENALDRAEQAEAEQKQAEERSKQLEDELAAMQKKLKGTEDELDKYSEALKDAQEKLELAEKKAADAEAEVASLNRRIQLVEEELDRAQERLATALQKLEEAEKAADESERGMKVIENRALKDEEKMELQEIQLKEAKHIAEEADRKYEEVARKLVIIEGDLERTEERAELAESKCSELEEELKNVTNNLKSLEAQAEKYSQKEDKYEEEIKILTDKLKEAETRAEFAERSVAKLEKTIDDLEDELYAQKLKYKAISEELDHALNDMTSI
Chain of troponin (rabbit skeletal muscle troponin complex) (P02643 whole entry, looked up): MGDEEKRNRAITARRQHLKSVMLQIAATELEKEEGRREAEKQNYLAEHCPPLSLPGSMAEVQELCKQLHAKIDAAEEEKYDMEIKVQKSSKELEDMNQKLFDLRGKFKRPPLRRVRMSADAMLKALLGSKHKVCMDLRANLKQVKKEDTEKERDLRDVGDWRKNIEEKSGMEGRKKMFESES
Chain of troponin (rabbit skeletal muscle troponin complex) (P02586 whole entry, looked up): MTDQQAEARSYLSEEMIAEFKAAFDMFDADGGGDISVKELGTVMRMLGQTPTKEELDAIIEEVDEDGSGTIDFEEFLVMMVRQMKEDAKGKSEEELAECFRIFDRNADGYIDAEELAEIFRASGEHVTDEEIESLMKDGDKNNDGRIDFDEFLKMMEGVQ
Chain of myosin subfragment-1 (S1), lacking regulatory light chains (domain or fragment) (Q28641 whole entry, the tested form may be a part): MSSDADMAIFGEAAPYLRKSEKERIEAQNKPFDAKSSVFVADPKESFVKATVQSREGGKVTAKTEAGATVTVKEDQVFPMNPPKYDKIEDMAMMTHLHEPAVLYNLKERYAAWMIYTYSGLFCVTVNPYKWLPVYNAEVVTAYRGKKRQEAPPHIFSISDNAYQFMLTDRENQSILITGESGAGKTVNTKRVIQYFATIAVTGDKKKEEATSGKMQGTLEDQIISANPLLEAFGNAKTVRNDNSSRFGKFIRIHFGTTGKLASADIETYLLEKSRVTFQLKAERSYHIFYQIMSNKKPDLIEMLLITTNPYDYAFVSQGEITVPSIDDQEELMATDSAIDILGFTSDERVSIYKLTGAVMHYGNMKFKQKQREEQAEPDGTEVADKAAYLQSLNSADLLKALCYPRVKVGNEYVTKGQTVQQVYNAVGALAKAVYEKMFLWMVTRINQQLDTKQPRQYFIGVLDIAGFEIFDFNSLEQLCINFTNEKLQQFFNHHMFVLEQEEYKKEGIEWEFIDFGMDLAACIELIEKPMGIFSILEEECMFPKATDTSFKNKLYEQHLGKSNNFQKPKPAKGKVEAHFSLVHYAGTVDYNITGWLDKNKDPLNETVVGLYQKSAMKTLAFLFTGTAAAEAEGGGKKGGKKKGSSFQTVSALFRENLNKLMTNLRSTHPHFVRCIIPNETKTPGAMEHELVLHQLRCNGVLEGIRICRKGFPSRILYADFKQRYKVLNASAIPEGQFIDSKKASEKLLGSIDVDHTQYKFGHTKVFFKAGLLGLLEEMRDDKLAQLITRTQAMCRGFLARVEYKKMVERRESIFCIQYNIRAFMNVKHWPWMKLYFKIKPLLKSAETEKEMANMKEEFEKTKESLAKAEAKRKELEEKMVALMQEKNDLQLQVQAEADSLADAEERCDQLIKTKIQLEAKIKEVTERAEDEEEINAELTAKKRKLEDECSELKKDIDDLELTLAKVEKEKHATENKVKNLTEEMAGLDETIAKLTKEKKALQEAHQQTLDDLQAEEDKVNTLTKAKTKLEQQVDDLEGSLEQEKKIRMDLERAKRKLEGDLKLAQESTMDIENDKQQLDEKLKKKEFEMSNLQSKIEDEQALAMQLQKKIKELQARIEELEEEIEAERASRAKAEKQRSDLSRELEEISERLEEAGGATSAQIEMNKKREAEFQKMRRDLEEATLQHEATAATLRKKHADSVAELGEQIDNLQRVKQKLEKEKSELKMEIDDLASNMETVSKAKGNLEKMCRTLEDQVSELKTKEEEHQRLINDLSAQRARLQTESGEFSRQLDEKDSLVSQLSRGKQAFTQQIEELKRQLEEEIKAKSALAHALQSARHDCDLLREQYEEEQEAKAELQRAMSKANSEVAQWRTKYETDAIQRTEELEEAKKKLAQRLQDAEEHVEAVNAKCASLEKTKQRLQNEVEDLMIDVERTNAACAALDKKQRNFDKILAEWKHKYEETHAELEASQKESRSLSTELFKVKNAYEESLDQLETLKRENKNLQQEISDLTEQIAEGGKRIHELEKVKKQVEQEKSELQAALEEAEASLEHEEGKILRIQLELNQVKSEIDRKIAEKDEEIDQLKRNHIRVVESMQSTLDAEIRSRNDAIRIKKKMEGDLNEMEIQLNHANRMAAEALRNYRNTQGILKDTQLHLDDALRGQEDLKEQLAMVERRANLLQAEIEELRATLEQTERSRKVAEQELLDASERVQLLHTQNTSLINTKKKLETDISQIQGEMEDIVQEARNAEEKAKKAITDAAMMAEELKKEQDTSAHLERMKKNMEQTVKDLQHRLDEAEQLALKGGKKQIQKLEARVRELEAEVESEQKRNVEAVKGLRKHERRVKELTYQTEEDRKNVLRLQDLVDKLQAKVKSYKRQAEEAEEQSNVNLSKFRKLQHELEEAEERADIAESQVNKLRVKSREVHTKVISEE
Chain of wild-type α-tropomyosin (Tpm1.1) with N-terminal Met–Ala–Ser extension (natural protein) (P04692 whole entry): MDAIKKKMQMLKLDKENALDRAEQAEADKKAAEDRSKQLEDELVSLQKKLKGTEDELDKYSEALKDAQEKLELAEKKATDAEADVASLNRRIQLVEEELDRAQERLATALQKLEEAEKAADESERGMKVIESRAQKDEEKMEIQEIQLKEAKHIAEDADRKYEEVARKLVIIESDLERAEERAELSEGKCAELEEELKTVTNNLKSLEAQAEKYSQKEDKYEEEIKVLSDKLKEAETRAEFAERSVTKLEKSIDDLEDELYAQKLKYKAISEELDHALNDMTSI

In the case of “wild-type γ-tropomyosin (Tpm3.12, human TPM3) with N-terminal Met–Ala–Ser extension (natural protein)”, in experiment [1] (setting [3]), the stoichiometry N was found to be 6.9.

As to “β-tropomyosin (human TPM2) Q147P with N-terminal Met–Ala–Ser extension (natural protein)”, the stoichiometry N in experiment [1] (setting [3]) worked out at 6.9.

Consider “wild-type β-tropomyosin (human TPM2) with N-terminal Met–Ala–Ser extension E117K”, for which the other: N (relative number of disordered fluorophores) is 0.38 rel. units in experiment [2] (S1 (no nucleotide), Actin + Tpm + Tn, + Ca2+, parent: est. 0.40); 0.28 rel. units in experiment [2] (S1 (no nucleotide), Actin + Tpm + Tn, - Ca2+, parent: est. 0.25); 0.39 rel. units in experiment [2] (S1 + ADP, Actin + Tpm + Tn, + Ca2+, parent: est. 0.39); 0.33 rel. units in experiment [2] (S1 + ADP, Actin + Tpm + Tn, - Ca2+, parent: est. 0.28); 0.6 rel. units in experiment [2] (S1 + ATP, Actin + Tpm + Tn, + Ca2+, parent: est. 0.68); 0.53 rel. units in experiment [2] (S1 + ATP, Actin + Tpm + Tn, - Ca2+, parent: est. 0.44). Besides, the other: N (relative number of disordered fluorophores) in experiment [2] (S1 + Tpm, no troponin, no nucleotide, parent: est. 0.26) was determined as 0.39 rel. units.

Turning to “γ-tropomyosin (Tpm3.12, human TPM3) R90P with N-terminal Met–Ala–Ser extension (natural protein)”, the stoichiometry N in experiment [1] (setting [3]) worked out at 6.9.

As to “α-tropomyosin (rat TPM1) R167H with N-terminal Met–Ala–Ser extension (natural protein)”, in experiment [1] (setting [3]), the stoichiometry N came out at 6.9.

As for “wild-type α-tropomyosin (Tpm1.1) with N-terminal Met–Ala–Ser extension K168E”, the other: N (relative number of disordered fluorophores) worked out at 0.17 rel. units in experiment [2] (setting [4]); 0.06 rel. units in experiment [2] (setting [5]); 0.11 rel. units in experiment [2] (setting [6]); 0.23 rel. units in experiment [2] (setting [7]); 0.34 rel. units in experiment [2] (setting [8]); 0.36 rel. units in experiment [2] (setting [9]).

In the case of “wild-type γ-tropomyosin (Tpm3.12, human TPM3) with N-terminal Met–Ala–Ser extension E173A”, the other: N (relative number of disordered fluorophores) stood at 0.1 rel. units in experiment [2] (S1 (no nucleotide), Actin + Tpm + Tn, + Ca2+, parent: est. 0.17); 0.1 rel. units in experiment [2] (setting [10]); 0.13 rel. units in experiment [2] (setting [11]); 0.13 rel. units in experiment [2] (setting [12]); 0.28 rel. units in experiment [2] (S1 + ATP, Actin + Tpm + Tn, + Ca2+, parent: est. 0.18); 0.35 rel. units in experiment [2] (setting [13]). The other: N (relative number of disordered fluorophores) in experiment [2] (setting [14]) was 0.15 rel. units.

With “β-tropomyosin (human TPM2) R91G with N-terminal Met–Ala–Ser extension (natural protein)”, the stoichiometry N in experiment [1] (setting [3]) came out at 6.9.

As for “myosin subfragment-1 (S1), lacking regulatory light chains (domain or fragment)”, in experiment [1] (scale: mol actin per mol S1), the stoichiometry N worked out at 4.1.

“γ-tropomyosin (Tpm3.12, human TPM3) E173A with N-terminal Met–Ala–Ser extension (natural protein)”: the stoichiometry N in experiment [1] (setting [3]) was 6.9.

With “wild-type α-tropomyosin (Tpm1.1) with N-terminal Met–Ala–Ser extension R167H”, the other: N (relative number of disordered fluorophores) in experiment [2] (setting [4]) was 0.14 rel. units; in experiment [2] (setting [5]), 0.085 rel. units; in experiment [2] (setting [6]), 0.2 rel. units; in experiment [2] (setting [7]) it was 0.24 rel. units; in experiment [2] (setting [8]), 0.44 rel. units; in experiment [2] (setting [9]) it was 0.35 rel. units.

Turning to “troponin (rabbit skeletal muscle troponin complex) (from UniProt P02586 1-160; P02643 1-182)”, in experiment [1] (scale: mol actin per mol troponin), the stoichiometry N is 7.5.

Take “wild-type β-tropomyosin (human TPM2) with N-terminal Met–Ala–Ser extension (natural protein)”: the stoichiometry N in experiment [1] (setting [3]) was found to be 6.9.

Regarding “wild-type γ-tropomyosin (Tpm3.12, human TPM3) with N-terminal Met–Ala–Ser extension R90P”, the other: N (relative number of disordered fluorophores) is 0.2 rel. units in experiment [2] (S1 (no nucleotide), Actin + Tpm + Tn, + Ca2+, parent: est. 0.15); 0.17 rel. units in experiment [2] (setting [10]); 0.17 rel. units in experiment [2] (setting [11]); 0.16 rel. units in experiment [2] (setting [12]); 0.095 rel. units in experiment [2] (S1 + ATP, Actin + Tpm + Tn, + Ca2+, parent: est. 0.32); 0.1 rel. units in experiment [2] (setting [13]). In addition, the other: N (relative number of disordered fluorophores) in experiment [2] (setting [14]) is 0.15 rel. units.

“γ-tropomyosin (Tpm3.12, human TPM3) E150A with N-terminal Met–Ala–Ser extension (natural protein)”: the stoichiometry N in experiment [1] (setting [3]) turned out to be 6.9.

For the substance “α-tropomyosin (rat TPM1) K168E with N-terminal Met–Ala–Ser extension (natural protein)”, the stoichiometry N in experiment [1] (setting [3]) amounted to 6.9.

For the substance “wild-type α-tropomyosin (Tpm1.1) with N-terminal Met–Ala–Ser extension (natural protein)”, the stoichiometry N in experiment [1] (setting [3]) amounted to 6.9.

“β-tropomyosin (human TPM2) E117K with N-terminal Met–Ala–Ser extension (natural protein)”: in experiment [1] (setting [3]), the stoichiometry N came out at 6.9.

With “wild-type β-tropomyosin (human TPM2) with N-terminal Met–Ala–Ser extension R91G”, the other: N (relative number of disordered fluorophores) was 0.26 rel. units in experiment [2] (S1 (no nucleotide), Actin + Tpm + Tn, + Ca2+, parent: est. 0.27); 0.28 rel. units in experiment [2] (S1 (no nucleotide), Actin + Tpm + Tn, - Ca2+, parent: est. 0.29); 0.28 rel. units in experiment [2] (S1 + ADP, Actin + Tpm + Tn, + Ca2+, parent: est. 0.30); 0.27 rel. units in experiment [2] (S1 + ADP, Actin + Tpm + Tn, - Ca2+, parent: est. 0.32); 0.61 rel. units in experiment [2] (S1 + ATP, Actin + Tpm + Tn, + Ca2+, parent: est. 0.45); 0.38 rel. units in experiment [2] (S1 + ATP, Actin + Tpm + Tn, - Ca2+, parent: est. 0.60). Moreover, in experiment [2] (S1 + Tpm, no troponin, no nucleotide, parent: est. 0.28), the other: N (relative number of disordered fluorophores) worked out at 0.27 rel. units.
